B1: mouse anti-human TSLPR antibody 70E8 (antibody, mouse IgG1, V domains shown)
VH: DVQLQESGPDLVKPSQSLSLTCTVTNYSITSGYSWPWIRQFPGNKLEWLGYIHSSGRTNYNPSLKSRISITRDTSKNQFFLQLNSVTPEDTATYYCARSQLGLVFFAYWGQGTLVTVSA
VL: DIVMTQSQKFMSTSVGDRVSVTCKASQSVGANVAWYQQIPGHSPKVLIYSASYRFSGVPDRFTGSGSGTDFTLTISNVQSEDLAEYFCQQYNSYPYTFGGGTKLEIRR
B2: rat anti-human TSLPR antibody 18B3 (antibody, V domains shown)
VH: EVQLVESGGGLVQPGRSLRLSCVASGFTFNNYWMTWVRQAPGKGLEWVASITDTSGRTYYPDSVKGRFTISRDHAKSTLYLQMNSLRPEDTATYYCTKTLGGIPRDWGQGVMVTVSS
VL: NIQLTQSPSLLSASVGDRVTLSCKGSQNINNYLAWYQQKLGEAPKLLIFKTNILQTGIPLRFSGSGSGTDYTLTISSLHCEDLATYYCYQFNNGFTFGPGTKLELKR
B3: chimeric anti-human TSLPR 13H5 antibody (antibody, V domains shown, not shown: a dimerising Fc or GST)
VH: QVLLKQSGPSLVQPSQSLSITCTVSGFSLSRYGVHWVRQSPGKGLEWLGVIWRSGSTDYNAAFMSRLSITQDNSKSQVFFNMNSLQSDDSAIYYCAKKAFYVMDYWGQGTSVTVSS
VL: DIQMTQTTSSLSASLGDRVTISCRASQDISIYLNWYQQKPDGTVKLLIYYTSRLHSGVPSRFSGSGSGTNFSLTITNLEEEDIATYFCQQGNTLPWTFGGGTKLEIKR
B4: mouse anti human TSLPR antibody 13H5 (antibody, mouse IgG1, V domains shown)
VH: QVLLKQSGPSLVQPSQSLSITCTVSGFSLSRYGVHWVRQSPGKGLEWLGVIWRSGSTDYNAAFMSRLSITQDNSKSQVFFNMNSLQSDDSAIYYCAKKAFYVMDYWGQGTSVTVSS
VL: DIQMTQTTSSLSASLGDRVTISCRASQDISIYLNWYQQKPDGTVKLLIYYTSRLHSGVPSRFSGSGSGTNFSLTITNLEEEDIATYFCQQGNTLPWTFGGGTKLEIKR

Legend:
hTSLPR-ECTO-His (human) = experiment: ELISA, plate coated with TSLPR 50 ng/well, HRP goat anti-mouse detection
hTSLPR-Ig fusion (human) [1] = target: hTSLPR-Ig fusion (human) (UniProt Q9HC73); experiment: SPR BIAcore T100, huTSLPR-hIg amine-coupled on CM5, antibody as analyte, bivalent analyte model, n = 2
hTSLPR-Ig fusion (human) [2] = target: hTSLPR-Ig fusion (human) (UniProt Q9HC73); experiment: SPR BIAcore T100, huTSLPR-hIg amine-coupled on CM5, antibody as analyte, bivalent analyte model, n = 6

Chain of hTSLPR-Ig fusion (human) (Q9HC73 23-231): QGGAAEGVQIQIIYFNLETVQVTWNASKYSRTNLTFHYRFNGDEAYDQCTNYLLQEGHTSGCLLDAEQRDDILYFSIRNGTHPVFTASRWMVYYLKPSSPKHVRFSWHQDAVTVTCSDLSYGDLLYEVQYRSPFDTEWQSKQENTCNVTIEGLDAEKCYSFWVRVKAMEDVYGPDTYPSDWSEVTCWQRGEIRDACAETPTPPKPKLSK

Binder	EC50 (hTSLPR-ECTO-His (human)) [µg/mL]	Kd (hTSLPR-Ig fusion (human) [1]) [pM]	koff (hTSLPR-Ig fusion (human) [1]) [s⁻¹]	kon (hTSLPR-Ig fusion (human) [1]) [M⁻¹ s⁻¹]	Kd (hTSLPR-Ig fusion (human) [2]) [pM]	koff (hTSLPR-Ig fusion (human) [2]) [s⁻¹]	kon (hTSLPR-Ig fusion (human) [2]) [M⁻¹ s⁻¹]
B1	0.0162	79	0.00012	1.52e+06	–	–	–
B2	–	8	1.5e-05	1.81e+06	–	–	–
B3	–	102	0.000136	1.34e+06	–	–	–
B4	0.0106	–	–	–	37	7.8e-05	2.12e+06

— patent US20110020369A1
